Laboratory results as given in patent publication US20190367615A1 (BEIJING HANMI PHARM, published 2019).

Key:
[1] = molecular target: T1, Recombinant human PD-1-Fc (human, UniProt Q15116 25-167, limits assumed); test: competition ELISA, PD-1-Fc coated, competitor biotin-labeled PD-L1
T1 construct: also called recombinant human PD-1-Fc protein; not shown: Fc part
Experimental: (§1) Recombinant human PD-1-Fc was coated on a 96-well high-absorbing ELISA plate with a carbonate buffer solution with pH 9.6, the coating concentration was 1 μg/mL, the coating amount was 100 μL per well, and the coating was carried at 4° C. out overnight. The plate was washed five times with PBST and blocked with 300 μL/well of PBST containing 1% BSA and incubated at 25° C. for 1 hour. The plate was washed five times with PBST. The positive control and the anti-human PD-1 antibody sample were added, 50 μL per well. […] The plate was washed five times with PBST. Then, Streptavidin-HRP (BD Pharmingen, Catalog Number 554066) 1:1000 diluted in PBST containing 1% BSA was added, 100 μL per well, incubated at 25° C. for 1 hour. The plate was washed five times with PBST. 100 μL/well of colorimetric substrate TMB was added and incubated at room temperature for 10 minutes. Color development was terminated by adding 100 μL/well of 1 M H₂SO₄. The absorbance at 450 nm was read on a microplate reader.

[2] = molecular target: T2, Recombinant human PD-1 (Sino Biological Inc., Catalog Number 10377-H08H) (human, UniProt Q15116 25-167); test: ELISA, coated recombinant human PD-1 (1 ug/mL), detection with anti-human IgG-HRP, OD450nm
T2 construct: Bought protein; also called antigen PD-1
T2 sequence (Q15116 25-167 limits assumed): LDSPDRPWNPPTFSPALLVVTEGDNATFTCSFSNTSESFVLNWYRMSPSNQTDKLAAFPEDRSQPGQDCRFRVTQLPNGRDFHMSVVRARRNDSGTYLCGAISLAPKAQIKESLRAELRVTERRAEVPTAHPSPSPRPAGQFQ
Experimental: (§2) Recombinant human PD-1 (purchased from Sino Biological Inc.) was coated on a 96-well high-absorbing ELISA plate with a carbonate buffer solution with pH 9.6, the coating concentration was 1 μg/mL, the coating amount was 100 μL per well, and the coating was carried out at 4° C. overnight. The plate was washed five times with PBST and blocked with 300 μL/well of PBST containing 1% BSA, and then incubated at 25° C. for 1 hour. The plate was washed five times with PBST. […] The plate was washed five times with PBST. Then, horseradish peroxidase-labeled anti-human IgG antibody (Chemicon, Catalog Number AP309P) 1:2000 diluted in PBST containing 1% BSA was added, 100 μL per well, incubated at 25° C. for 1 hour. The plate was washed five times with PBST. 100 μL/well of colorimetric substrate TMB was added and incubated at room temperature for 10 minutes. Color development was terminated by adding 100 μL/well of 1 M H₂SO₄. The absorbance at 450 nm was read on a microplate reader.

[3] = molecular target: Recombinant human PD-L1 (Sino Biological Inc.) (human, UniProt Q9NZQ7 19-239); test: binding specificity ELISA, coated recombinant human PD-L1, anti-human IgG-HRP
Recombinant human PD-L1 (Sino Biological Inc.), sequence (Q9NZQ7 19-239 limits assumed): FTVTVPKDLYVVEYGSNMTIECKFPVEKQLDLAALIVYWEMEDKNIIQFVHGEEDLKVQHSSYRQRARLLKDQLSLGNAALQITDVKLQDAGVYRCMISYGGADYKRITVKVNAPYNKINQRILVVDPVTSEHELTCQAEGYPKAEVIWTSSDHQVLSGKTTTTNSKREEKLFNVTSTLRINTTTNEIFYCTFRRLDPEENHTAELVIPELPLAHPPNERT
Experimental: as §2, with “The” for “Recombinant human PD-1 (purchased from Sino Biological Inc.) was coated on a 96-well high-absorbing ELISA plate with a carbonate buffer solution with pH 9.6, the coating concentration was 1 μg/mL, the coating amount was 100 μL per well, and the coating was carried out at 4° C. overnight. The”, “1% BSA” for “1% BSA,”, “and” for “and then”, “μL was added to each” for “μL per”

[4] = molecular target: Recombinant human CD28 (Sino Biological Inc.) (human, UniProt P10747 19-152); test: binding specificity ELISA, coated recombinant human CD28, anti-human IgG-HRP
Recombinant human CD28 (Sino Biological Inc.), sequence (P10747 19-152 limits assumed): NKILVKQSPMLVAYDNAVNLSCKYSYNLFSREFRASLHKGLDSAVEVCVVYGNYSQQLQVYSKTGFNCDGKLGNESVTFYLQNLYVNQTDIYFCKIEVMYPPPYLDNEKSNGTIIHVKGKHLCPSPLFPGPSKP
Experimental: as §2, with “The” for “Recombinant human PD-1 (purchased from Sino Biological Inc.) was coated on a 96-well high-absorbing ELISA plate with a carbonate buffer solution with pH 9.6, the coating concentration was 1 μg/mL, the coating amount was 100 μL per well, and the coating was carried out at 4° C. overnight. The”, “1% BSA” for “1% BSA,”, “and” for “and then”, “μL was added to each” for “μL per”

[5] = molecular target: T1, Recombinant human PD-1-Fc; test: competition ELISA, coated human PD-1-Fc, blocked ligand biotin-labeled PD-L2 (final 160 nM), streptavidin-HRP, OD450nm [panel PD-1/PD-L2 Blocking Activity]
Experimental: as §1

[6] = molecular target: T3, Recombinant human BTLA (Sino Biological Inc.) (human, UniProt Q7Z6A9 31-157, limits assumed); test: binding specificity ELISA, coated recombinant human BTLA, anti-human IgG-HRP
T3 sequence (looked up): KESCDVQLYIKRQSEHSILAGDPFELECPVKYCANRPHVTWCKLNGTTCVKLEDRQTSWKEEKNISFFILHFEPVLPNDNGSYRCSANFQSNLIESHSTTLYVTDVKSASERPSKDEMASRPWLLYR
Experimental: as §2, with “The” for “Recombinant human PD-1 (purchased from Sino Biological Inc.) was coated on a 96-well high-absorbing ELISA plate with a carbonate buffer solution with pH 9.6, the coating concentration was 1 μg/mL, the coating amount was 100 μL per well, and the coating was carried out at 4° C. overnight. The”, “1% BSA” for “1% BSA,”, “and” for “and then”, “μL was added to each” for “μL per”

[7] = molecular target: T1, Recombinant human PD-1-Fc; test: competition ELISA, coated human PD-1-Fc, blocked ligand biotin-labeled PD-L1 (final 10 nM), streptavidin-HRP, OD450nm [panel PD-1/PD-L1 Blocking Activity]
Experimental: as §1

[8] = molecular target: T4, Recombinant human CD86 (Sino Biological Inc.) (human, UniProt P42081 24-247, limits assumed); test: binding specificity ELISA, coated recombinant human CD86, anti-human IgG-HRP
T4 sequence (looked up): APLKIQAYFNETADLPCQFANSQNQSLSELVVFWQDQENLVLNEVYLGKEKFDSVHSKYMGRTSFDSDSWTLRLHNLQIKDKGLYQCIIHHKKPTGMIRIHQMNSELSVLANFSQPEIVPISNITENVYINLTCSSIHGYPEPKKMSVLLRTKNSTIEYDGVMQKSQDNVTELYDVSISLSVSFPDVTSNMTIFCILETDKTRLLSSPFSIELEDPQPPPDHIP
Experimental: as §2, with “The” for “Recombinant human PD-1 (purchased from Sino Biological Inc.) was coated on a 96-well high-absorbing ELISA plate with a carbonate buffer solution with pH 9.6, the coating concentration was 1 μg/mL, the coating amount was 100 μL per well, and the coating was carried out at 4° C. overnight. The”, “1% BSA” for “1% BSA,”, “and” for “and then”, “μL was added to each” for “μL per”

[9] = molecular target: T5, Recombinant human PD-L2 (Sino Biological Inc.) (human, UniProt Q9BQ51 20-220); test: binding specificity ELISA, coated recombinant human PD-L2, anti-human IgG-HRP
T5 sequence (looked up): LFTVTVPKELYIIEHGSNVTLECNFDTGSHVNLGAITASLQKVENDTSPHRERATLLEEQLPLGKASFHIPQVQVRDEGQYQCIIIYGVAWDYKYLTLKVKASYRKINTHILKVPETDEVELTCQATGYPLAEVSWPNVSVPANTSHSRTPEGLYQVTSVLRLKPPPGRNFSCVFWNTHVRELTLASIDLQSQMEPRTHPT
Experimental: as §2, with “The” for “Recombinant human PD-1 (purchased from Sino Biological Inc.) was coated on a 96-well high-absorbing ELISA plate with a carbonate buffer solution with pH 9.6, the coating concentration was 1 μg/mL, the coating amount was 100 μL per well, and the coating was carried out at 4° C. overnight. The”, “1% BSA” for “1% BSA,”, “and” for “and then”, “μL was added to each” for “μL per”

T1 sequence (Q15116 25-167 limits assumed): as the sequence (Q15116 25-167 limits assumed) above

IC50 [1]: 1.45 nM
EC50 [2]: 0.092 nM
binding result [3]: no binding
binding result [4]: no binding
IC50 [5]: 0.895 nM
binding result [6]: no binding
IC50 [7]: 0.972 nM
binding result [8]: no binding
binding result [9]: no binding
B1: anti-human PD-1 chimeric monoclonal antibody (antibody, human IgG4 S228P, kappa, V domains shown)
VH: EVQLQESGGGLVKPGGSLKLSCAASGFTFSSYGMSWVRQTPEKRLEWVASISGGGRYTYYPDSMKGRFTISRDNAKNNLHLQMSSLRSEDTALYYCVYEYFYTMDYWGQGTSVTVSS
VL: DIVLTQSPATLSVTPGDSVSLSCRANQSISNNLHWYQQRSHESPRLLIRFASQSISGIPSRFSGSGSGTDFTLSINSVETEDFGMYFCQQSDNWPLTFGAGTKLEIKR
notes: expressed in 293F cells; also called Anti-human PD-1 Chimeric Antibody; chimeric anti-human PD-1 monoclonal antibody
